# Measured values taken from patent US20180346588A1 (MOGAM INSTITUTE FOR BIOMEDICAL RESEARCH, published 2018).
# B1: clone C2G1 (MS502 light chain variable region mutation antibody) (antibody, V domains shown)
# VH: EVQLLESGGGLVQPGGSLRLSCAASGFTFSNYAMSWVRQAPGKGLEWVSGIPPDSGSKYYADSVRGRFTVSRDNSKNTLYLQMNSLRAEDTAVYYCAKNMLSFDYWGQGTLVTVSS
# VL: QSVLTQPPSASGTPGQRVTISCTGSSSNIGPNAVSWYQQLPGTAPKLLIYYNSKRPSGVPDRFSGSKSGTSASLAISGLRSEDEADYYCGSWDSSLSGYVFGGGTKVTVLG
# notes: SPR done with IgG (human IgG1 heavy constant region)
# B2: clone C2G4 (MS502 light chain variable region mutation antibody) (antibody, V domains shown)
# VH: EVQLLESGGGLVQPGGSLRLSCAASGFTFSNYAMSWVRQAPGKGLEWVSGIPPDSGSKYYADSVRGRFTVSRDNSKNTLYLQMNSLRAEDTAVYYCAKNMLSFDYWGQGTLVTVSS
# VL: QSVLTQPPSASGTPGQRVTISCTGSSSNIGSNAVSWYQQLPGTAPKLLIYYNSKRPSGVPDRFSGSKSGTSASLAISGLRSEDEADYYCGSWDPSLNGYVFGGGTKVTVLG
# notes: as for B1
# B3: clone C3C8 (MS502 light chain variable region mutation antibody) (antibody, V domains shown)
# VH: EVQLLESGGGLVQPGGSLRLSCAASGFTFSNYAMSWVRQAPGKGLEWVSGIPPDSGSKYYADSVRGRFTVSRDNSKNTLYLQMNSLRAEDTAVYYCAKNMLSFDYWGQGTLVTVSS
# VL: QSVLTQPPSASGTPGQRVTISCTGSSSNIGPNAVSWYQQLPGTAPKLLIYYNSKRPSGVPDRFSGSKSGTSASLAISGLRSEDEADYYCGSWDSDLRGYVFGGGTKVTVLG
# notes: as for B1
# Target: T1, recombinant human mesothelin (MSLN) (human, UniProt Q13421 296-580, limits assumed)
# T1 construct: also called human MSLN; recombinant human MSLN
# T1 sequence (Q13421 other isoform, or with tags, fused parts or gaps limits assumed): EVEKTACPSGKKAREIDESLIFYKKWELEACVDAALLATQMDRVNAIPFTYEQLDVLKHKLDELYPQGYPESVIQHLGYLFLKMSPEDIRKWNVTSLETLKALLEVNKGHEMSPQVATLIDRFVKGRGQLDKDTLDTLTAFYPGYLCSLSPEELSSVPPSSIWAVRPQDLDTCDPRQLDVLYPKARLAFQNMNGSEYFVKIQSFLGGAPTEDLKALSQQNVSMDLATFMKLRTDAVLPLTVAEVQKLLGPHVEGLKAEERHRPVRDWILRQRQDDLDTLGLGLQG
# Experiment: SPR, Biacore T-200; MSLN amine-coupled to CM5 chip, IgG in flow
# Experimental: Quantitative binding force (affinity) of the purified anti-MSLN antibodies, i.e., the MS502 clone light chain variable region mutation antibodies C2G1, C2G4, and C3C8 with regard to the recombinant human mesothelin (MSLN) was measured by using a Biacore T-200 (GE Healthcare, U.S.A.) biosensor. […] Then, the clone C2G1 antibody, the clone C2G4 antibody or the clone C3C8 antibody serially diluted with HBS-EP buffer (10 mM HEPES, pH7.4, 150 mM NaCl, 3 mM EDTA, 0.005% surfactant P20) was allowed to flow at a concentration range of 0.078 nM to 5 nM and at a flow rate of 30 μL/min for association of 120 seconds and dissociation of 1800 seconds. The dissociation of the antibody bound to the MSLN was induced by flowing 10 mM Glycine-HCl pH 1.5 at a flow rate of 30 μL/min for 30 seconds (Table 13). The affinity was obtained as movement speed constants (Kₒₙ and Koff) and an equilibrium dissociation constant (KD) by using a Biacore T-200 evaluation software (Table 14).
row,Binder,Kd [nM]
1,B1,0.0939
2,B2,0.0432
3,B3,0.122
